Data reported in patent publication US20130142802A1 (published 2013).

B1: FGFR2 IIIb-Fc (Fc fusion)
chain: TLEPEDAISSGDDEDDTDGAEDFVSENSNNKRAPYWTNTEKMEKRLHAVPAANTVKFRCPAGGNPMPTMRWLKNGKEFKQEHRIGGYKVRNQHWSLIMESVVPSDKGNYTCVVENEYGSINHTYHLDVVERSPHRPVLQAGLPANASTVVGGDVEFVCKVYSDAQPHIQWIKHVEKNGSKYGPDGLPYLKVLKHSGINSSNAEVLALFNVTEADAGEYICKVSNYIGQANQSAWLTVLPKQQAPGREKEITASPDYLEDKTHTCPPCPAPELLGGPSVFLFPPKPKDTLYITREPEVTCVVVDVSHEDPEVKFNWYVDGVEVHNAKTKPREEQYNSTYRVVSVLTVLHQDWLNGKEYKCKVSNKALPAPIEKTISKAKGQPREPQVYTLPPSREEMTKNQVSLTCLVKGFYPSDIAVEWESNGQPENNYKTTPPVLDSDGSFFLYSKLTVDKSRWQQGNVFSCSVMHEALKFHYTQKSLSLSPGK
notes: also called FGFR2IIIb beta-ECD; FGFR2IIIb-hFc
B4: Flag-FGFR2-IIIb expressed on CHO cells (receptor, human)
chain: RPSFSLVEDTTLEPEEPPTKYQISQPEVYVAAPGESLEVRCLLKDAAVISWTKDGVHLGPNNRTVLIGEYLQIKGATPRDSGLYACTASRTVDSETWYFMVNVTDAISSGDDEDDTDGAEDFVSENSNNKRAPYWTNTEKMEKRLHAVPAANTVKFRCPAGGNPMPTMRWLKNGKEFKQEHRIGGYKVRNQHWSLIMESVVPSDKGNYTCVVENEYGSINHTYHLDVVERSPHRPILQAGLPANASTVVGGDVEFVCKVYSDAQPHIQWIKHVEKNGSKYGPDGLPYLKVLKHSGINSSNAEVLALFNVTEADAGEYICKVSNYIGQANQSAWLTVLPKQQAPGREKEITASPDYLEIAIYCIGVFLIACMVVTVILCRMKNTTKKPDFSSQPAVHKLTKRIPLRRQVTVSAESSSSMNSNTPLVRITTRLSSTADTPMLAGVSEYELPEDPKWEFPRDKLTLGKPLGEGCFGQVVMAEAVGIDKDKPKEAVTVAVKMLKDDATEKDLSDLVSEMEMMKMIGKHKNIINLLGACTQDGPLYVIVEYASKGNLREYLRARRPPGMEYSYDINRVPEEQMTFKDLVSCTYQLARGMEYLASQKCIHRDLAARNVLVTENNVMKIADFGLARDINNIDYYKKTTNGRLPVKWMAPEALFDRVYTHQSDVWSFGVLMWEIFTLGGSPYPGIPVEELFKLLKEGHRMDKPANCTNELYMMMRDCWHAVPSQRPTFKQLVEDLDRILTLTTNEEYLDLSQPLEQYSPSYPDTRSSCSSGDDSVFSPDPMPYEPCLPQYPHINGSVKT
notes: whole, on cells; also called CHO-FGFR2-IIIb; FGFR2-IIIb-expressing CHO cells; not shown: Flag-tag at the N-terminus

Experiments:
[1] = target: T1, FGF8b (UniProt P55075-3 23-215); test: ligand binding ELISA (data not shown)
T1 construct: Coated on ELISA plates; also called ligand protein FGF8b
T1 sequence (looked up): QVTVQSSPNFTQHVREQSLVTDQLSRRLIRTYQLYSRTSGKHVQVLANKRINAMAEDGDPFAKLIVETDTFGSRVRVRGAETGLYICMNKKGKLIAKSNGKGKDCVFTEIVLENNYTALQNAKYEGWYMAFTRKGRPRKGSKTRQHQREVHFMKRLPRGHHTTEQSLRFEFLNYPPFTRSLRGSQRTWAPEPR

[2] = target: B4; test: immunocytochemistry on CHO cells
[3] = target: T2, Flag-FGFR2-IIIc expressed on CHO cells (human, UniProt P21802 22-821); test: cell-based binding assay on stable CHO-FGFR2-IIIc cells, method of Beatty et al.
T2 construct: whole, on cells; also called CHO-FGFR2-IIIc; CHO-IIIc; not shown: Flag-tag at the N-terminus

[4] = target: T2, Flag-FGFR2-IIIc expressed on CHO cells; test: cell-based binding assay (cell ELISA) on stable CHO-FGFR2-IIIc cells
[5] = target: T3, FGFR2-IIIc (receptor protein of FIG. 52C) (UniProt P21802 152-377, limits assumed); test: ELISA with biotinylated Atto-HuMab-01; the receptor concentration is varied (x axis: FGFR receptor concentration, nM)
[6] = target: T3, FGFR2-IIIc (receptor protein of FIG. …); test: binding curves of biotinylated antibody on FGF receptors (FIG. 52C), format not told; biotinylated antibody, FIG. 52C receptor panel
[7] = target: T4, human ferritin (Fer) (human, UniProt P02794 2-183; P02792 2-175, Natural ferritin is a 24-subunit shell of H and L chains in a tissue-dependent ratio, with an iron core. The letters carry one copy of each subunit.); test: phage ELISA on coated protein
T4 construct: also called Feritin

[8] = target: T5, 128AA-mFc (128-amino acid loop-3 fragment of FGFR2IIIc fused to mouse Fc) (human); test: phage ELISA on coated protein
T5 chain: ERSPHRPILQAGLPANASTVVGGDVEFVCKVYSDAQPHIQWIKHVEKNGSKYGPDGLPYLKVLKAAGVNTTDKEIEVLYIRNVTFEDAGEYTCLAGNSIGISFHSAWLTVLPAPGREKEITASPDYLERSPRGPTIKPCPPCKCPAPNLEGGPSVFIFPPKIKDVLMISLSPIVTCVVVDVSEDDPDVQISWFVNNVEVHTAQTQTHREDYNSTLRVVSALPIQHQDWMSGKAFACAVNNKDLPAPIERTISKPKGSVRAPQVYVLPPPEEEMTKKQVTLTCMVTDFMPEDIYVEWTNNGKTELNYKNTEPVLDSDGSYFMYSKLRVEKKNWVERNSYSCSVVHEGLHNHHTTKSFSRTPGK

[9] = target: human ovalbumin (OA) (human); test: phage ELISA on coated protein
[10] = target: T4, human ferritin (Fer); test: phage ELISA on coated protein; remark: listed apart in the source
[11] = target: B4; test: immunocytochemical staining of CHO cells transiently expressing FGFR2IIIb
[12] = target: B1; test: phage ELISA, plate coated with FGFR2 IIIb Fc fusion (whole extracellular domain)
[13] = target: T6, dcFv-01 (Fc-fusion of human scFv Clone 1) (human); test: immunocytochemical staining of CHO cells transiently expressing FGFR2IIIb
T6 construct: scFv-1 fragment fused to the N-terminus of human IgG1 Fc; bivalent; also called dcFv-1; clone dcFv-1; not shown: human IgG1 Fc of vector pFUSE-hIgG1e2-Fc2(IL2ss) (Invivogen)

B1
binding result [1]: no binding

B2: Atto-HuMab-01 (full-length human IgG1) (antibody, V domains shown)
VH: QVQLVQSGAEVKKPGSSVKVSCKASGGTFSSYAISWVRQAPGQGLEWMGRIIPIFGTANYAQKFQGRVTITADESTSTAYMELNSLRSEDTAVYYCARDRWDWNDAFDIWGQGTMVTVSS
VL: not shown
notes: also called Atto-01
binding result [2]: no binding (tested: 1ug/ml)
Kd [3]: 700 pM
EC50 (read off the curve) [4]: ~400 pM
EC50 (read off the curve) [5]: ~200 pM
Kd [6]: ~200 pM

B3: human scFv clone 8, phage-displayed (scFv)
scFv: QSVLTQPPSVSAAPGQKVTISCSGSSSNIGNNYVSWYQQLPGTAPKLLIYDNNKRPSGIPDRFSGSKSGTSATLAISGLQSEDEADYYCAAWDDSLNGVVFGGGTKLTVLGSGGSTITSYNVYYTKLSSSGTQVQLVQSGAEVKKPGSSVKVSCKASGGTFSSYAISWVRQAPGQGLEWMGRIIPIFGTANYAQKFQGRVTITADESTSTAYMELNSLRSEDTAVYYCARDRWDWNDAFDIWGQGTMVTVSS
notes: also called scFv-8; Atto-HuMab-08
binding result [7]: no binding
OD (450 nm) [8]: 0.215
OD (450 nm) [9]: 0.02
OD (450 nm) [10]: 0.011
binding result [11]: no binding
binding result [12]: no binding

B4
binding result [13]: no binding
